Our source for the Kd values is patent publication US20230057177A1 (CULLGEN SHANGHAI, published 2023).

What is called Kd is the free concentration of one partner at which half of the binding sites on the other are occupied at equilibrium, for simple one-to-one binding.

The labels stand for the following.
B1: Peptide 1 (SEQ ID NO: 1) (peptide)
peptide: ILPKVLHKRTLGLS
notes: No terminal modifications are stated for the tested peptide

Some results are limits rather than exact numbers.

T1 sequence (Q16531 other isoform, or with tags, fused parts or gaps limits assumed): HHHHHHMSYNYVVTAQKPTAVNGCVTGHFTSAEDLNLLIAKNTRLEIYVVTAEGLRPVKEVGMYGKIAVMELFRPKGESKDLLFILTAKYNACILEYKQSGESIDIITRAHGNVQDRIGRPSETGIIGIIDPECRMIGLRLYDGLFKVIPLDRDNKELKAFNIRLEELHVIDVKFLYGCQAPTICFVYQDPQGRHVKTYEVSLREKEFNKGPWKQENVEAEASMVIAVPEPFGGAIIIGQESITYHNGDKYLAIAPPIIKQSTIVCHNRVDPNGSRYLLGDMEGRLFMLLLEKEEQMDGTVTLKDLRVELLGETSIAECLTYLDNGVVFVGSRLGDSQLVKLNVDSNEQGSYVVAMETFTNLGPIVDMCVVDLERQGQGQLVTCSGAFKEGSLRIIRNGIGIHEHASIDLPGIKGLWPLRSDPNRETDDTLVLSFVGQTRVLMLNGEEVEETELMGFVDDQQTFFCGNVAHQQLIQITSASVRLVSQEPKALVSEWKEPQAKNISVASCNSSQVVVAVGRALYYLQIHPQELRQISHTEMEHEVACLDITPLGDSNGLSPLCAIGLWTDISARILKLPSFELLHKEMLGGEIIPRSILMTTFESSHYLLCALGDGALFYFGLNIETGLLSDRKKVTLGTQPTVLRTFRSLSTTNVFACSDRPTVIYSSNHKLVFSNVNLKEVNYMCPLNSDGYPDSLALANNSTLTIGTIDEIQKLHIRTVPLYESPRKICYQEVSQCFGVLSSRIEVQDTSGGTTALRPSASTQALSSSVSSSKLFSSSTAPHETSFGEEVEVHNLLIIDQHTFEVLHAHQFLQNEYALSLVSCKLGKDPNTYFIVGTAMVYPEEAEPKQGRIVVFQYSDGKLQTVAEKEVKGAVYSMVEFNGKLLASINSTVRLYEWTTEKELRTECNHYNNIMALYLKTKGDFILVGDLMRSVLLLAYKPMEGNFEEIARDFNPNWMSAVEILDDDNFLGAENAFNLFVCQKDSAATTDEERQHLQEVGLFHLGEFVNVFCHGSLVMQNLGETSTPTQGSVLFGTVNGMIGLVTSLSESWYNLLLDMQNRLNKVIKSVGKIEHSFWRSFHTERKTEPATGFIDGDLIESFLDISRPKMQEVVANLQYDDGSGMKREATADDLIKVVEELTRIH

One assay addresses T1, His-DDB1 (human DNA damage-binding protein 1 with N-terminal His6-tag) (human, UniProt Q16531 1-1140).
T1 construct: Vector-derived residues between the His6-tag and DDB1 (pFastBacHTB) are not described; also called His-DDB1 proteins
Description: SPR (Biacore), His-DDB1 amine-coupled on CM5 chip, steady state affinity fit; graded cell, table key: A: Kd < 20 uM. For orientation: Surface plasmon resonance follows binding to a sensor surface in real time, without labels.
For the molecule NFTSRLNRRASFP [Peptide 6 (SEQ ID NO: 6)], the dissociation constant Kd was under 20 µM.

B1 returned a dissociation constant (Kd) of under 20 µM. On to ILPKVLHKRTLGL [Peptide 3 (SEQ ID NO: 3)], for which the Kd was under 20 µM. On the same count and under the same terms, the same measure for ILPKVLHKRTFGL [Peptide 4 (SEQ ID NO: 4)]: under 20 µM; for ILPKVWHKRELGLS [Peptide 2 (SEQ ID NO: 2)]: under 20 µM; for KVLHKRTLG [Peptide 5 (SEQ ID NO: 5)]: under 20 µM.

For a further assay, the target named is T1, His-DDB1 (human DNA damage-binding …). Description: SPR (Biacore), His-DDB1 amine-coupled on CM5 chip, steady state affinity fit; graded cell, table key: B: Kd 20-100 uM (lower end of the range).
For SRLNRRASF [Peptide 7 (SEQ ID NO: 7)], the Kd lay within 20 to 100 µM.
